Laboratory results: the supplement of paper PMC5998384

Legend:
HeLa Kyoto [1] = assay: solubility in G1/S (NP-40 vs SDS abundance) (log2 ratio); higher = more soluble; settings: cell cycle stage: G1/S
HeLa Kyoto [2] = assay: solubility change mitosis vs G1/S (difference of NP-40 vs SDS log2 ratios) (log2 ratio difference); higher = more soluble in mitosis
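For solubility change mitosis vs G1/S (difference of NP-40 vs SDS log2 ratios) in this document: synchronized HeLa Kyoto cells (double thymidine block for G1/S, nocodazole release for mitosis), protein amounts in NP-40 versus SDS lysates quantified by mass spectrometry, three biological replicates.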
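For solubility in G1/S (NP-40 vs SDS abundance) in this document: HeLa Kyoto cells arrested at G1/S by double thymidine block, proteins quantified by TMT10plex mass spectrometry in mild NP-40 versus SDS extracts, three biological replicates.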

Sequence	solubility in G1/S (log2) (HeLa Kyoto [1])	solubility change mitosis (log2) (HeLa Kyoto [2])
MPAGGRAGSLKDPDVAELFFKDDPEKLFSDLREIGHGSFGAVYFARDVRNSEVVAIKKMSYSGKQSNEKWQDIIKEVRFLQKLRHPNTIQYRGCYLREHTAWLVMEYCLGSASDLLEVHKKPLQEVEIAAVTHGALQGLAYLHSHNMIHRDVKAGNILLSEPGLVKLGDFGSASIMAPANSFVGTPYWMAPEVILAMDEGQYDGKVDVWSLGITCIELAERKPPLFNMNAMSALYHIAQNESPVLQSGHWSEYFRNFVDSCLQKIPQDRPTSEVLLKHRFVLRERPPTVIMDLIQRTKDAVRELDNLQYRKMKKILFQEAPNGPGAEAPEEEEEAEPYMHRAGTLTSLESSHSVPSMSISASSQSSSVNSLADASDNEEEEEEEEEEEEEEEGPEAREMAMMQEGEHTVTSHSSIIHRLPGSDNLYDDPYQPEITPSPLQPPAAPAPTSTTSSARRRAYCRNRDHFATIRTASLVSRQIQEHEQDSALREQLSGYKRMRRQHQKQLLALESRLRGEREEHSARLQRELEAQRAGFGAEAEKLARRHQAIGEKEARAAQAEERKFQQHILGQQKKELAALLEAQKRTYKLRKEQLKEELQENPSTPKREKAEWLLRQKEQLQQCQAEEEAGLLRRQRQYFELQCRQYKRKMLLARHSLDQDLLREDLNKKQTQKDLECALLLRQHEATRELELRQLQAVQRTRAELTRLQHQTELGNQLEYNKRREQELRQKHAAQVRQQPKSLKVRAGQRPPGLPLPIPGALGPPNTGTPIEQQPCSPGQEAVLDQRMLGEEEEAVGERRILGKEGATLEPKQQRILGEESGAPSPSPQKHGSLVDEEVWGLPEEIEELRVPSLVPQERSIVGQEEAGTWSLWGKEDESLLDEEFELGWVQGPALTPVPEEEEEEEEGAPIGTPRDPGDGCPSPDIPPEPPPTHLRPCPASQLPGLLSHGLLAGLSFAVGSSSGLLPLLLLLLLPLLAAQGGGGLQAALLALEVGLVGLGASYLLLCTALHLPSSLFLLLAQGTALGAVLGLSWRRGLMGVPLGLGAAWLLAWPGLALPLVAMAAGGRWVRQQGPRVRRGISRLWLRVLLRLSPMAFRALQGCGAVGDRGLFALYPKTNKDGFRSRLPVPGPRRRNPRTTQHPLALLARVWVLCKGWNWRLARASQGLASHLPPWAIHTLASWGLLRGERPTRIPRLLPRSQRQLGPPASRQPLPGTLAGRRSRTRQSRALPPWR [TAOK2]	-0.239	-0.0236
MPALLERPKLSNAMARALHRHIMMERERKRQEEEEVDKMMEQKMKEEQERRKKKEMEERMSLEETKEQILKLEEKLLALQEEKHQLFLQLKKVLHEEEKRRRKEQSDLTTLTSAAYQQSLTVHTGTHLLSMQGSPGGHNRPGTLMAADRAKQMFGPQVLTTRHYVGSAAAFAGTPEHGQFQGSPGGAYGTAQPPPHYGPTQPAYSPSQQLRAPSAFPAVQYLSQPQPQPYAVHGHFQPTQTGFLQPGGALSLQKQMEHANQQTGFSDSSSLRPMHPQALHPAPGLLASPQLPVQMQPAGKSGFAATSQPGPRLPFIQHSQNPRFYHK [GPS2]	0.416	-0.0529
MPAPAATYERVVYKNPSEYHYMKVCLEFQDCGVGLNAAQFKQLLISAVKDLFGEVDAALPLDILTYEEKTLSAILRICSSGLVKLWSSLTLLGSYKGKKCAFRVIQVSPFLLALSGNSRELVLD [RPP14]	-0.294	0.0872
MPCVQAQYSPSPPGSSYAAQTYSSEYTTEIMNPDYTKLTMDLGSTEITATATTSLPSISTFVEGYSSNYELKPSCVYQMQRPLIKVEEGRAPSYHHHHHHHHHHHHHHQQQHQQPSIPPASSPEDEVLPSTSMYFKQSPPSTPTTPAFPPQAGALWDEALPSAPGCIAPGPLLDPPMKAVPTVAGARFPLFHFKPSPPHPPAPSPAGGHHLGYDPTAAAALSLPLGAAAAAGSQAAALESHPYGLPLAKRAAPLAFPPLGLTPSPTASSLLGESPSLPSPPSRSSSSGEGTCAVCGDNAACQHYGVRTCEGCKGFFKRTVQKNAKYVCLANKNCPVDKRRRNRCQYCRFQKCLSVGMVKEVVRTDSLKGRRGRLPSKPKSPLQQEPSQPSPPSPPICMMNALVRALTDSTPRDLDYSRYCPTDQAAAGTDAEHVQQFYNLLTASIDVSRSWAEKIPGFTDLPKEDQTLLIESAFLELFVLRLSIRSNTAEDKFVFCNGLVLHRLQCLRGFGEWLDSIKDFSLNLQSLNLDIQALACLSALSMITERHGLKEPKRVEELCNKITSSLKDHQSKGQALEPTESKVLGALVELRKICTLGLQRIFYLKLEDLVSPPSIIDKLFLDTLPF [NR4A3]	-0.0603	-0.0421
MPDNRQPRNRQPRIRSGNEPRSAPAMEPDGRGAWAHSRAALDRLEKLLRCSRCTNILREPVCLGGCEHIFCSNCVSDCIGTGCPVCYTPAWIQDLKINRQLDSMIQLCSKLRNLLHDNELSDLKEDKPRKSLFNDAGNKKNSIKMWFSPRSKKVRYVVSKASVQTQPAIKKDASAQQDSYEFVSPSPPADVSERAKKASARSGKKQKKKTLAEINQKWNLEAEKEDGEFDSKEESKQKLVSFCSQPSVISSPQINGEIDLLASGSLTESECFGSLTEVSLPLAEQIESPDTKSRNEVVTPEKVCKNYLTSKKSLPLENNGKRGHHNRLSSPISKRCRTSILSTSGDFVKQTVPSENIPLPECSSPPSCKRKVGGTSGRKNSNMSDEFISLSPGTPPSTLSSSSYRRVMSSPSAMKLLPNMAVKRNHRGETLLHIASIKGDIPSVEYLLQNGSDPNVKDHAGWTPLHEACNHGHLKVVELLLQHKALVNTTGYQNDSPLHDAAKNGHVDIVKLLLSYGASRNAVNIFGLRPVDYTDDESMKSLLLLPEKNESSSASHCSVMNTGQRRDGPLVLIGSGLSSEQQKMLSELAVILKAKKYTEFDSTVTHVVVPGDAVQSTLKCMLGILNGCWILKFEWVKACLRRKVCEQEEKYEIPEGPRRSRLNREQLLPKLFDGCYFYLWGTFKHHPKDNLIKLVTAGGGQILSRKPKPDSDVTQTINTVAYHARPDSDQRFCTQYIIYEDLCNYHPERVRQGKVWKAPSSWFIDCVMSFELLPLDS [BARD1]	-0.332	0.187
MPGLVDSNPAPPESQEKKPLKPCCACPETKKARDACIIEKGEEHCGHLIEAHKECMRALGFKI [COX17]	-0.216	0.425
MPIPPPPPPPPGPPPPPTFHQANTEQPKLSRDEQRGRGALLQDICKGTKLKKVTNINDRSAPILEKPKGSSGGYGSGGAALQPKGGLFQGGVLKLRPVGAKDGSENLAGKPALQIPSSRAAAPRPPVSAASGRPQDDTDSSRASLPELPRMQRPSLPDLSRPNTTSSTGMKHSSSAPPPPPPGRRANAPPTPLPMHSSKAPAYNREKPLPPTPGQRLHPGREGPPAPPPVKPPPSPVNIRTGPSGQSLAPPPPPYRQPPGVPNGPSSPTNESAPELPQRHNSLHRKTPGPVRGLAPPPPTSASPSLLSNRPPPPARDPPSRGAAPPPPPPVIRNGARDAPPPPPPYRMHGSEPPSRGKPPPPPSRTPAGPPPPPPPPLRNGHRDSITTVRSFLDDFESKYSFHPVEDFPAPEEYKHFQRIYPSKTNRAARGAPPLPPILR [WIPF2]	-0.764	1.2
MPNFSGNWKIIRSENFEELLKVLGVNVMLRKIAVAAASKPAVEIKQEGDTFYIKTSTTVRTTEINFKVGEEFEEQTVDGRPCKSLVKWESENKMVCEQKLLKGEGPKTSWTRELTNDGELILTMTADDVVCTRVYVRE [CRABP2]	-0.0816	-0.109
MPPKKDVPVKKPAGPSISKPAAKPAAAGAPPAKTKAEPAVPQAPQKTQEPPVDLSKVVIEFNKDQLEEFKEAFELFDRVGDGKILYSQCGDVMRALGQNPTNAEVLKVLGNPKSDELKSRRVDFETFLPMLQAVAKNRGQGTYEDYLEGFRVFDKEGNGKVMGAELRHVLTTLGEKMTEEEVETVLAGHEDSNGCINYEAFLKHILSV [MYL6B]	-0.063	0.317
MPPLKSPAAFHEQRRSLERARTEDYLKRKIRSRPERSELVRMHILEETSAEPSLQAKQLKLKRARLADDLNEKIAQRPGPMELVEKNILPVESSLKEAIIVGQVNYPKVADSSSFDEDSSDALSPEQPASHESQGSVPSPLEARVSEPLLSATSASPTQVVSQLPMGRDSREMLFLAEQPPLPPPPLLPPSLTNGTTIPTAKSTPTLIKQSQPKSASEKSQRSKKAKELKPKVKKLKYHQYIPPDQKQDRGAPPMDSSYAKILQQQQLFLQLQILNQQQQQHHNYQAILPAPPKSAGEALGSSGTPPVRSLSTTNSSSSSGAPGPCGLARQNSTSLTGKPGALPANLDDMKVAELKQELKLRSLPVSGTKTELIERLRAYQDQISPVPGAPKAPAATSILHKAGEVVVAFPAARLSTGPALVAAGLAPAEVVVATVASSGVVKFGSTGSTPPVSPTPSERSLLSTGDENSTPGDTFGEMVTSPLTQLTLQASPLQILVKEEGPRAGSCCLSPGGRAELEGRDKDQMLQEKDKQIEALTRMLRQKQQLVERLKLQLEQEKRAQQPAPAPAPLGTPVKQENSFSSCQLSQQPLGPAHPFNPSLAAPATNHIDPCAVAPGPPSVVVKQEALQPEPEPVPAPQLLLGPQGPSLIKGVAPPTLITDSTGTHLVLTVTNKNADSPGLSSGSPQQPSSQPGSPAPAPSAQMDLEHPLQPLFGTPTSLLKKEPPGYEEAMSQQPKQQENGSSSQQMDDLFDILIQSGEISADFKEPPSLPGKEKPSPKTVCGSPLAAQPSPSAELPQAAPPPPGSPSLPGRLEDFLESSTGLPLLTSGHDGPEPLSLIDDLHSQMLSSTAILDHPPSPMDTSELHFVPEPSSTMGLDLADGHLDSMDWLELSSGGPVLSLAPLSTTAPSLFSTDFLDGHDLQLHWDSCL [MKL1]	0.297	-0.244
MPRCPAGAMDEGPVDLRTRPKAAGLPGAALPLRKRPLRAPSPEPAAPRGAAGLVVPLDPLRGGCDLPAVPGPPHGLARPEALYYPGALLPLYPTRAMGSPFPLVNLPTPLYPMMCPMEHPLSADIAMATRADEDGDTPLHIAVVQGNLPAVHRLVNLFQQGGRELDIYNNLRQTPLHLAVITTLPSVVRLLVTAGASPMALDRHGQTAAHLACEHRSPTCLRALLDSAAPGTLDLEARNYDGLTALHVAVNTECQETVQLLLERGADIDAVDIKSGRSPLIHAVENNSLSMVQLLLQHGANVNAQMYSGSSALHSASGRGLLPLVRTLVRSGADSSLKNCHNDTPLMVARSRRVIDILRGKATRPASTSQPDPSPDRSANTSPESSSRLSSNGLLSASPSSSPSQSPPRDPPGFPMAPPNFFLPSPSPPAFLPFAGVLRGPGRPVPPSPAPGGS [BCL3]	0.0652	-0.154
MPTWGARPASPDRFAVSAEAENKVREQQPHVERIFSVGVSVLPKDCPDNPHIWLQLEGPKENASRAKEYLKGLCSPELQDEIHYPPKLHCIFLGAQGFFLDCLAWSTSAHLVPRAPGSLMISGLTEAFVMAQSRVEELAERLSWDFTPGPSSGASQCTGVLRDFSALLQSPGDAHREALLQLPLAVQEELLSLVQEASSGQGPGALASWEGRSSALLGAQCQGVRAPPSDGRESLDTGSMGPGDCRGARGDTYAVEKEGGKQGGPREMDWGWKELPGEEAWEREVALRPQSVGGGARESAPLKGKALGKEEIALGGGGFCVHREPPGAHGSCHRAAQSRGASLLQRLHNGNASPPRVPSPPPAPEPPWHCGDRGDCGDRGDVGDRGDKQQGMARGRGPQWKRGARGGNLVTGTQRFKEALQDPFTLCLANVPGQPDLRHIVIDGSNVAMVHGLQHYFSSRGIAIAVQYFWDRGHRDITVFVPQWRFSKDAKVRESHFLQKLYSLSLLSLTPSRVMDGKRISSYDDRFMVKLAEETDGIIVSNDQFRDLAEESEKWMAIIRERLLPFTFVGNLFMVPDDPLGRNGPTLDEFLKKPARTQGSSKAQHPSRGFAEHGKQQQGREEEKGSGGIRKTRETERLRRQLLEVFWGQDHKVDFILQREPYCRDINQLSEALLSLNF [KHNYN]	0.384	-0.219
